Laboratory results as given in patent US20030096306A1.

Target: GCN4 leucine zipper (aa 245-285) fused C-terminal to LexA (yeast)
Experiment: cell-based or functional assay

growth on -Trp/-Leu/-His plates with 3-AT (HIS3 reporter, two hybrid): 20 mM 3-AT
Substance: Gal4 AD-anti-GCN4 (H-R66K) scFv (from UniProt P04386 768-881)
